Test results reported in patent US20160274129.
Positions count from the first letter of the chain named. Names may count otherwise.

B1: CFP-T7-H2 (protein)
chain: MTSNRADTRVIVVGGGGTIGSSTALHLVRSGYAPANITVLDTFEIPSAQSAGHDLNKIMGIALRNKVDLQMSLEARQMWKEDELFQPFFHNTGRMDCEHTPEGIEDLKKLYQALHDAGAGLEKTHAWLDNEDEILSKMPLLQRDQIQGWKAIWSQDGGWLAAAKAINAIGQFLKERGVKFGFGGAGSFKQPLFDDEGTTCIGVETADGTKYYADKVVLAAGAWSPTLVDLEDQCCSKAWVYAHIQLTPEEAAEYKGVPVVYNGEFGFFFEPDEFGVIKVCDEFPGFSRFKEHQPYGAPSPKRISVPRSHAKHPTDTYPDASEVSIKKAIATFLPRFQDKELFNRALCWCTDTADAALLMCEHPKWKNFILATGDSGHSFKILPNVGKYVVELIEGRLPEEMAYQWRWRPGGDALKSRRAAPPKDLADMPGWKHDPKL
B2: CFP-T7-H3 (protein)
chain: B1 chain with L110F
B3: EFP-T5 (protein)
chain: MAHSRASTKVVVVGGGGTIGSSTALHLIRSGYTPSNITVLDVYKTPSLQSAGHDLNKIMGIRLRNGPDLQLSLESLDMWQNDELFKPFFHQVGMIDCSSSKEGIENLRRKYQTLLDAGIGLEKTNVWLESEDEILAKAPNFTREQVKGWKGLFCTDGGWLAAAKAINAIGIFLQDKGVKFGFGDAGTFQQPLFAADGKTCIGLETTDGTKYFADKVVLAAGAWSPTLVDLEDQCVSKAWVFAHIQLTPKEADAYKNVPVVYDGEYGFFFEPDEYGVIKVCDEFPGFSRFKLHQPYGAASPKMISVPRSHAKHPTDTYPDASEVTIRKAIARFLPEFKDKELFNRTMCWCTDTADANLLICEHPKWKNFILATGDSGHSFKLLPNIGKYVVELLEGSLSQEMAGAWRWRPGGDALRSRRGAPAKDLAEMPGWKHDAHL
B4: EFP-T5-62D/63H/106K/110L/113K/355S (protein)
chain: B3 chain with R62D, L63H, N106K, K110L, T113K, A355S
B5: EFP-T5-R62D (protein)
chain: B3 chain with R62D
B6: NvFX (protein)
chain: MTTPRKETTVLIIGGGGTIGSSTALHLLRAGYTPSNITVLDTYPIPSAQSAGNDLNKIMGIRLRNKVDLQLSLEARDMWRNDALFRPFFHNTGRLDCESSAEGVEGLRREYQKLVEAGVGLEETHEWLDSEEAILEKAPLLQREEIEGWKAIWSEEGGWLAAAKAINAIGEELQRQGVRFGFGGAGSFKRPLFADDGTTCIGVETVDGTQYHADKVVLAAGAWSPALVDLEEQCCSKAWVYAHMQLTPEEAAVYKGCPVVYHGDVGFFFEPNENGVIKVCDEFPGFTRFKQHQPYGAPAPKPVSVPRSHAKHPTDTYPDASEESIKRAVSTFLPRFKDKPLFNRALCWCTDTADSALLICEHPRWKNFILATGDSGHSFKLLPIIGKHVVELVEGRLADDLAEAWRWRPGQGDARKSIRAAPAKDLADMPGWKHDQDSESR
B7: NvFX-62D/106K/110L (protein)
chain: B6 chain with R62D, G106K, E110L
B8: PnFX (protein)
chain: MAPSRANTSVIVVGGGGTIGSSTALHLVRSGYTPSNVTVLDAYPIPSSQSAGNDLNKIMGVSLRNPVDLQLALEARQMWNEDELFKKFFHNTGRLDCAHGEKDIADLKSGYQALVDAGLDATNEWLDSEDEILKRMPLLSRDQIKGWKAIFSKDGGWLAAAKAINAVGEYLRDQGVRFGFYGAGSFKAPLLAEGVCIGVETVDGTRYYADKVVLAAGAWSPTLVELHEQCVSKAWVYGHIQLTPEEAARYKNSPVVYNGDVGFFFEPNEHGVIKVCDEFPGFTRFKMHQPFGAKAPKRISVPRSHAKHPTDTIPDASDVSIRRAIATFMPQFKNKKMFNQAMCWCTDTADAALLICEHPEWKNFVLATGDSGHSFKLLPNIGKHVVELLEGTLADDLAHAWRWRPGSGDALKSRRSAPAKDLADMPGWNHDKPRANL
B9: PnFX-62D/106K/110L/113K (protein)
chain: B8 chain with S62D, D106K, G110L, A113K
B10: PnFX-62D/63H/106K/110L/113K/351S (protein)
chain: B8 chain with S62D, L63H, D106K, G110L, A113K, A351S
B11: AnFX (protein)
chain: MTPRANTKIIVVGGGGTMGSSTALHLLRAGYTPSNITVLDTCPIPSAQSAGYDLNKIMGIRLRNKPDLQLSLEALDMWKNDPLFKPFFHNVGMIDVSSTEEGIEGLRKKYQSLLDAGIGLEKTNFMLESEDEILAKAPHFTQEQIKGWKGLFCGDGGWLAAAKAINAIGQFLKEQGVKFGFGGAGTFKKPLFADAHEKTCIGVETVDGTKYYADKVVLAAGAWSSTLVDLEEQCVSKAWVFAHIQLTPAEAAAYKNTPVIYDGDYGFFFEPNENGIIKVCDEFPGFTHFKMHQPYGSPAPKPISVPRSHAKHPTDTYPHASEVTIKKAINRFLPRFNDKELFNRAMCWCTDTADANLLVCEHPRWKGFYLATGDSGHSFKLLPNIGKHVVELLEERLESVFKDAWRWRPGSGDALKSRRAAPAKDLADMPGWRNEAKM
B12: AnFX-61D/105K/109L (protein)
chain: B11 chain with R61D, G105K, K109L
B13: AnFX-61D/62H/101K/105K/109L/112K/355S (protein)
chain: B11 chain with R61D, L62H, E101K, G105K, K109L, S112K, A355S
B14: Cc95FX (protein)
chain: MAPSRANTSVIVVGGGGTIGSSTALHLVRSGYTPSNITVLDAYPIPSSQSAGNDLNKIMGIRLRNKVDLQLSLEARQMWREDDLFKEYFHNTGRLDCAHGEEGLADLRQAYQALLDANAGLEETTEWLDSEDEILKKMPLLSRDQIKGWKAVYSQDGGWLAAAKAINAIGEYLRAQGVKFGFGGAGSFKQPLLAEGVCIGVETVDGTRYYADKVVLAAGAWSPTLVELHEQCVSKAWVYGHIQLTPEEAAEYKNSPVVYNGDVGFFFEPNEHGVIKVCDEFPGFTRFKMHQPFGAKAPKRISVPRSHAKHPTDTIPDASEKSIRKAIATFLPKFTEKELFNRHLCWCTDTADAALLICEHPEWKNFVLATGDSGHSFKLLPNIGKHVVELLEGTLADDLAHAWRWRPGSGDALKSRRSAPAKDLADMPGWKHDDVVKSKL

Target: T1, α-fructosyl-valyl-histidyl-leucyl-threonyl-proryl-glutamic acid
T1 chain: VHLTPE

| Protein | αF6P oxidation activity (crude enzyme; αFVH oxidation activity = 100) (relative (αFVH = 100)) | αF6P/αFV | αF6P/αFVH | Specific activity (U/mg), 1 mM αF6P, purified enzyme [U/mg] | fold of specific activity on αF6P against PnFX before mutation |
| --- | --- | --- | --- | --- | --- |
| B1 | 0.0735 | 0.000536 | 0.000735 |  |  |
| B2 | 0.0298 | 0.000205 | 0.000298 |  |  |
| B3 |  |  |  | 0 |  |
| B4 |  |  |  | 1.12 |  |
| B5 |  |  |  | 0.0043 |  |
| B6 |  |  |  | 0 |  |
| B7 |  |  |  | 0.003 |  |
| B8 |  |  |  | 0.0091 |  |
| B9 |  |  |  | 0.125 | specific activity on αF6P was elevated by 13.7 fold |
| B10 |  |  |  | 0.667 |  |
| B11 |  |  |  | 0 |  |
| B12 |  |  |  | 0.106 |  |
| B13 |  |  |  | 0.283 |  |
| B14 | 0 | 0 | 0 |  |  |
